Earlier results on 1 substance are cited in article PMC3078175.

For this data set, the target named is IL-17RB (Homo sapiens) (UniProt Q9NRM6).
Sequence of UniProt Q9NRM6 (Q9NRM6 18-292): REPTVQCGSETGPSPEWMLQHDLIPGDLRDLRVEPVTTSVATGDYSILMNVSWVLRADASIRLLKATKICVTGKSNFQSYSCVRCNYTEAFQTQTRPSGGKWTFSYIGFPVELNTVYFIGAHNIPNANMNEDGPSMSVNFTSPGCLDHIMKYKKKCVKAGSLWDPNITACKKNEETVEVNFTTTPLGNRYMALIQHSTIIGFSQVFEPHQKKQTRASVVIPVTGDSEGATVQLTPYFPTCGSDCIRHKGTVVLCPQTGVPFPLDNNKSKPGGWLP

Consider IL-17B (from UniProt Q9UHF5), for which the Kd was 7.6 nM.

What is called Kd is the constant that tells how readily two partners part at equilibrium.
